Test results taken from publication PMC4475461.
Read-outs that look alike come from different tables or passages of the source.

How the values were obtained:
[1] = target: T1, HLTF HIRAN domain (Homo sapiens, UniProt Q14527 55-180); experiment: NMR
T1 sequence: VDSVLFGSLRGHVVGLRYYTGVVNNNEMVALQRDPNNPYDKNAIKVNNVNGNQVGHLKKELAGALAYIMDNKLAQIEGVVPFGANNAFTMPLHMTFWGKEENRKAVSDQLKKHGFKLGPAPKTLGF

[2] = target: T1, HLTF HIRAN domain; experiment: NMR; remark: listed apart in the source

## GCTGATAAAT (ssDNA) [d(GCTGATAAAT)]
[1]
  binding result: binds

## TTTTTTTTTT (ssDNA) [dT10 (NMR)]
[2]
  binding result: binds

B1: d(GCTGATAAAT) duplex (dsDNA)
DNA 1: GCTGATAAAT
DNA 2: ATTTATCAGC
[1]
  binding result: no binding
